B1: endothelial protein C receptor (EPCR), residues 16 to 210, biotinylated on the BAP tag (receptor)
chain: FCSQDASDGLQRLHMLQISYFRDPYHVWYQGNASLGGHLTHVLEGPDTNTTIIQLQPLQEPESWARTQSGLQSYLLQFHGLVRLVHQERTLAFPLTIRCFLGCELPPEGSRAHVFFEVAVNGSSFVSFRPERALWQADTQVTSGVVTFTLQQLNAYNRTRYELREFLEDTCVQYVQKHISAENTKGSQTSRSYTS

Experiment [1] deals with HB3var03 CIDRα1.4 domain (E. coli, refolded) (Plasmodium falciparum). As to the kind of experiment: SPR; wild type, data from ref. 8. (Surface plasmon resonance follows binding to a sensor surface in real time, without labels.)
The target in experiment [2] is B1. Nature of the experiment: SPR.

A word on the Kd: it is the free concentration of one partner at which half of the binding sites on the other are occupied at equilibrium, for simple one-to-one binding. Lower therefore signals higher affinity. For orientation: koff means a measure of how fast the partners let go of each other. Read a high koff as fast dissociation.

In experiment [1], B1 yielded an equilibrium dissociation constant (Kd) of 400 pM and a koff of 0.000197 s⁻¹.

B2: synthetic binder (cys2 variant of design 469) (designed binder)
chain: NNWEQQKKNIEDDLDRYKKRAEELRKEAEKARKEARKTEDPTEEAKKEWEKRCKELEERARKLEDEAKDRVNDLFDSNFFQVIYSGDNDEEEWKKEKDRAEKEIEEWFKRIKEKCEEIKKRLEQ
modifications: biotin on the BAP tag (BirA)
With B2, the koff in experiment [2] amounted to 0.000131 s⁻¹.

These data come from doi:10.1101/749432 (2019).
